Data as given in patent CN113173994A (SHENZHEN INNOVA NANOBODI CO LTD, dated 2021).

T1: 血清标本中的AFP抗原 (UniProt P02771 19-609)
T1 construct: also called 质控血清AFP; 标准血清中的AFP
T1 sequence (looked up): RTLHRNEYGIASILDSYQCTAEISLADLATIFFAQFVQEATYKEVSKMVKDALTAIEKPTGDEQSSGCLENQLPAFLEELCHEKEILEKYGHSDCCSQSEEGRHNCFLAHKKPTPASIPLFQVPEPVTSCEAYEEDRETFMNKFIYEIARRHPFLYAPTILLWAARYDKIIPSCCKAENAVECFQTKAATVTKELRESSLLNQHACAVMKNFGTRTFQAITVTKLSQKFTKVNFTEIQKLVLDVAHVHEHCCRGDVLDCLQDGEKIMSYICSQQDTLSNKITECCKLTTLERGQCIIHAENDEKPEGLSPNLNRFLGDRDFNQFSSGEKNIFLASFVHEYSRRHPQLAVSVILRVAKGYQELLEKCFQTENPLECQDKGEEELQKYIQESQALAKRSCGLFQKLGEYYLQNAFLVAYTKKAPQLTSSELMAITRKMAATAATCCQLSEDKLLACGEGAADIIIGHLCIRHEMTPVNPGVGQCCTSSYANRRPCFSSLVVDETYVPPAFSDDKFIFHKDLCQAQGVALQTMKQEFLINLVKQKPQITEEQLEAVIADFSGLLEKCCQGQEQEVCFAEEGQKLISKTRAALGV

T2: 重组AFP抗原(爱必信生物，货号Abt-P-208，GenbankID:174) (UniProt P02771 19-609, limits assumed)
T2 construct: Bought recombinant antigen; also called 甲胎蛋白; α-fetoprotein
T2 sequence (looked up): T1 sequence (looked up)

B1: 带有化学发光区序列的纳米抗体1C5-HAP (other)
chain: QVQLQESGGGLVQAGGSLRLSCKASERTFSSYSMAWYRQAPGKKREFVASISWDDERTYYTDSVKGRFTISRPNAKNTVYLQMNSLKPEDTAVYYCAVGGLSDGLGPSYDYWGQGTQVTVSSGGGGSGGGGSGGGGSIIPVEEENPDFWNREAAEALGAAKKLQPAQTAAKNLIIFLGDGMGVSTVTAARILKGQKKDKLGPEIPLAMDRFPYVALSKTYNVDKHVPDSGATATAYLCGVKGNFQTIGLSAAARFNQCNTTRGNEVISVMNRAKKAGKSVGVVTTTRVQHASPAGTYAHTVNRNWYSDADVPASARQEGCQDIATQLISNMDIDVILGGGRKYMFRMGTPDPEYPDDYSQGGTRLDGKNLVQEWLAKRQGARYVWNRTELMQASLDPSVTHLMGLFEPGDMKYEIHRDSTLDPSLMEMTEAALRLLSRNPRGFFLFVEGGRIDHGHHESRAYRALTETIMFDDAIERAGQLTSEEDTLSLVTADHSHVFSFGGYPLRGSSIFGLAPGKARDRKAYTVLLYGNGPGYVLKDGARPDVTESESGSPEYRQQSAVPLDEETHAGEDVAVFARGPQAHLVHGVQEQTFIAHVMAFAACLEPYTACDLAPPAGTTD
notes: Expressed in 293 cells
B2: 纳米抗体1C5 (VHH)
VHH: QVQLQESGGGLVQAGGSLRLSCKASERTFSSYSMAWYRQAPGKKREFVASISWDDERTYYTDSVKGRFTISRPNAKNTVYLQMNSLKPEDTAVYYCAVGGLSDGLGPSYDYWGQGTQVTVSS

What was measured:
血清标本中的AFP抗原 = target: T1, 血清标本中的AFP抗原; assay: double-antibody sandwich chemiluminescence assay, detection antibody
[1] = target: T2, 重组AFP抗原(爱必信生物，货号Abt-P-208，GenbankID:174); assay: ELISA additivity test on coated AFP

Row | Binder | binding result (血清标本中的AFP抗原) | binding result [1]
1 | B1 | binds | –
2 | B2 | – | binds
